Experimental data as given in patent US20170044259A1 (published 2017).
One block for each binder: values may come before it.

Experiments:
[1] = target: T1, human PD-1-Fc (R and D systems, Minneapolis, Minn.) (human, UniProt Q15116 25-167); assay: inhibition ELISA; hPDL-2 Fc blockade
[2] = target: human PD-1-His (R & D systems, Minneapolis, Minn.) (human, UniProt Q15116 25-167); assay: BLI
[3] = target: T1, human PD-1-Fc (R and D systems, …); assay: inhibition ELISA; hPDL-1 Fc blockade
[4] = target: T1, human PD-1-Fc (R and D systems, …); assay: ELISA; lower left panel
[5] = target: T1, human PD-1-Fc (R and D systems, …); assay: ELISA; upper right panel
[6] = target: T1, human PD-1-Fc (R and D systems, …); assay: ELISA; lower right panel
[7] = target: T1, human PD-1-Fc (R and D systems, …); assay: ELISA; upper left panel
[8] = target: T1, human PD-1-Fc (R and D systems, …); assay: inhibition ELISA; hPDL-1 Fc blockade; remark: listed apart in the source
[9] = target: T1, human PD-1-Fc (R and D systems, …); assay: inhibition ELISA; hPDL-2 Fc blockade; remark: listed apart in the source

T1 sequence (Q15116 25-167): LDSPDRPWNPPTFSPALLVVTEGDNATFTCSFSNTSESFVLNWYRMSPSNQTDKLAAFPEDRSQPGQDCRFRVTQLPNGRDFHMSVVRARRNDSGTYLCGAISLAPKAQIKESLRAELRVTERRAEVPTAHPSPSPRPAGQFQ
human PD-1-His (R & D systems, Minneapolis, Minn.), sequence (Q15116 25-167): as above

B1: D4 (antibody, V domains shown)
VH: EVQLVESGGGLVQPGGSLRLSCAHSGFSFSSYDMSWVRQAPGKGLEWVATISGGGRYTYYADSVKGRFTISRDNSKNTLYLQMNSLRAEDTAVYYCASNYYGFDYWGQGTLLTVSS
VL: DIQMTQSPSSLSASVGDRVTITCKASQDVGTAVAWYQQKPGKAPKLLIYWASTRHTGVPSRFSGSGSGTDFTLTISSVQPEDFATYYCQQYSSYPWTFGQGTKLEIKR
IC50 [1]: 1.95 nM
Kd [2]: 5.52 nM
IC50 [3]: 2.72 nM

B2: PD-1 1.5 PD019 2001 (antibody)
heavy: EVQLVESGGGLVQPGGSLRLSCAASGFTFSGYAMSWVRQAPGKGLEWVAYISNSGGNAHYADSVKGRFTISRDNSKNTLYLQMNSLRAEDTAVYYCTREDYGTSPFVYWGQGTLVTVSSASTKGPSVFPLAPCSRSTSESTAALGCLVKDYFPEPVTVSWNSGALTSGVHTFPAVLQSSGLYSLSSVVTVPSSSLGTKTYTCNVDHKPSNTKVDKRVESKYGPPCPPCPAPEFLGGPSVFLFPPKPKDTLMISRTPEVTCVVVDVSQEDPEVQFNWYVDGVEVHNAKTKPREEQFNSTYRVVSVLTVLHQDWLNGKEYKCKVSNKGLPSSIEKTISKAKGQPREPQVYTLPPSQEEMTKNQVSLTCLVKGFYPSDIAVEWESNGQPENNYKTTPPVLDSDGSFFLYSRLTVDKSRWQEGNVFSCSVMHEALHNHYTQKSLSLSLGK
light: QGQSGQGPCDQNPYFYPYVCHAGGGSSGGSISSGLLSGRSDNHGGGSDIQLTQSPSSLSASVGDRVTITCRASESVDAYGISFMNWFQQKPGKAPKLLIYAASNQGSGVPSRFSGSGSGTDFTLTISSMQPEDFATYYCQQSKDVPWTFGQGTKLEIKRTVAAPSVFIFPPSDEQLKSGTASVVCLLNNFYPREAKVQWKVDNALQSGNSQESVTEQDSKDSTYSLSSTLTLSKADYEKHKVYACEVTHQGLSSPVTKSFNRGEC
Kd [4]: 5.45 nM

B7: PD-1 1.5 PD017 2001 (antibody)
heavy: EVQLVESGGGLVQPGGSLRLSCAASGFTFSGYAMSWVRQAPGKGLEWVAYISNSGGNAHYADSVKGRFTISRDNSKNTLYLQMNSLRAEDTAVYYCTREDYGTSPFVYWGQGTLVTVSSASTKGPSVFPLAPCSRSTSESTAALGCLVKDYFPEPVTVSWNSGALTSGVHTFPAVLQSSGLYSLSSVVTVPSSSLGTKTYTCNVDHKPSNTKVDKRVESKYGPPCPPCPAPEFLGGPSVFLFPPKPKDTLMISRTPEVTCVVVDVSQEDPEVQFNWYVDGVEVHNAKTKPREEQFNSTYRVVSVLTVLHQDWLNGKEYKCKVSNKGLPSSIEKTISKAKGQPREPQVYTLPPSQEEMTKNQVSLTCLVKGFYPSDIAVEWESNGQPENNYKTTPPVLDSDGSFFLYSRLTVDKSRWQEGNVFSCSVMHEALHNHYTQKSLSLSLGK
light: QGQSGQGTTCNLYQQSSMFCNAGGGSSGGSISSGLLSGRSDNHGGGSDIQLTQSPSSLSASVGDRVTITCRASESVDAYGISFMNWFQQKPGKAPKLLIYAASNQGSGVPSRFSGSGSGTDFTLTISSMQPEDFATYYCQQSKDVPWTFGQGTKLEIKRTVAAPSVFIFPPSDEQLKSGTASVVCLLNNFYPREAKVQWKVDNALQSGNSQESVTEQDSKDSTYSLSSTLTLSKADYEKHKVYACEVTHQGLSSPVTKSFNRGEC
Kd [5]: 4.36 nM

B8: PD-1 1.5 PD009 2001 (antibody)
heavy: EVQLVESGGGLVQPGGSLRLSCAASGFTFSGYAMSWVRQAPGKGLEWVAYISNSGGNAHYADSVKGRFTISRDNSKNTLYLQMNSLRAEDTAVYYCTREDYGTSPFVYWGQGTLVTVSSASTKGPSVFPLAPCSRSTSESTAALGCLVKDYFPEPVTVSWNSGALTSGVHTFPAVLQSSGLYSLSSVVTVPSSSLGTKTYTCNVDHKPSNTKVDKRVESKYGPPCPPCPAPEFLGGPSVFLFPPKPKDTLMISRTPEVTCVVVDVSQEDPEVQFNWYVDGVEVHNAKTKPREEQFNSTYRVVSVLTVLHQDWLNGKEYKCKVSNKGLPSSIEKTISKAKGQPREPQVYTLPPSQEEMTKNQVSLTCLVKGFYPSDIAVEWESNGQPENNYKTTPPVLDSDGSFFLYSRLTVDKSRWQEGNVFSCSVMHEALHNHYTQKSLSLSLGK
light: QGQSGQGAPRTCYTYQCSSFYTGGGSSGGSISSGLLSGRSDNHGGGSDIQLTQSPSSLSASVGDRVTITCRASESVDAYGISFMNWFQQKPGKAPKLLIYAASNQGSGVPSRFSGSGSGTDFTLTISSMQPEDFATYYCQQSKDVPWTFGQGTKLEIKRTVAAPSVFIFPPSDEQLKSGTASVVCLLNNFYPREAKVQWKVDNALQSGNSQESVTEQDSKDSTYSLSSTLTLSKADYEKHKVYACEVTHQGLSSPVTKSFNRGEC
Kd [7]: 0.399 nM

B9: A1.0 (antibody, V domains shown)
VH: EVQLVESGGGLVQPGGSLRLSCAASGFTFSGYAMSWVRQAPGKGLEWVAYISNSGGNAHYADSVKGRFTISRDNSKNTLYLQMNSLRAEDTAVYYCTREDYGTSPFVYWGQGTLVTVSS
VL: DIQLTQSPSSLSASVGDRVTITCRASESVDNYGISFMNWFQQKPGKAPKLLIYAASNQGSGVPSRFSGSGSGTDFTLTISSMQPEDFATYYCQQSKDVPWTFGQGTKLEIKR
IC50 [8]: 1.85 nM
IC50 [9]: 1.04 nM

B10: A1.2 (antibody, V domains shown)
VH: EVQLVESGGGLVQPGGSLRLSCAASGFTFSGYAMSWVRQAPGKGLEWVAYISNSGGNAHYADSVKGRFTISRDNSKNTLYLQMNSLRAEDTAVYYCTREDYGTSPFVYWGQGTLVTVSS
VL: DIQLTQSPSSLSASVGDRVTITCRASESVDQYGISFMNWFQQKPGKAPKLLIYAASNQGSGVPSRFSGSGSGTDFTLTISSMQPEDFATYYCQQSKDVPWTFGQGTKLEIKR
IC50 [8]: 1.55 nM
IC50 [9]: 1.01 nM

B11: PD-1 1.5 PD006 2001 (antibody)
heavy: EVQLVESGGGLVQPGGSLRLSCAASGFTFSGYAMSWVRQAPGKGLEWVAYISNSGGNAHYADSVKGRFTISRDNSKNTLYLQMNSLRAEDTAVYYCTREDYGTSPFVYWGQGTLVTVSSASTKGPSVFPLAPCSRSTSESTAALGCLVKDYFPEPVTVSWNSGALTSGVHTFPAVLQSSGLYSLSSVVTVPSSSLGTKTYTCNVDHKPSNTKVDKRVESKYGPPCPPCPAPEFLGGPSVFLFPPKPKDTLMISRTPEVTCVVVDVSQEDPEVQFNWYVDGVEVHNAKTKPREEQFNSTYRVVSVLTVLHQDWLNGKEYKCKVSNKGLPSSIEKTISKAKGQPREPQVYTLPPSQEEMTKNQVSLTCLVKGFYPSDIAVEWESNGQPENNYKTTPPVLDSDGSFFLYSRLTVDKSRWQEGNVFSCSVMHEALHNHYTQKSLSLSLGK
light: QGQSGQGAPRCYMFASYCKSQYGGGSSGGSISSGLLSGRSDNHGGGSDIQLTQSPSSLSASVGDRVTITCRASESVDAYGISFMNWFQQKPGKAPKLLIYAASNQGSGVPSRFSGSGSGTDFTLTISSMQPEDFATYYCQQSKDVPWTFGQGTKLEIKRTVAAPSVFIFPPSDEQLKSGTASVVCLLNNFYPREAKVQWKVDNALQSGNSQESVTEQDSKDSTYSLSSTLTLSKADYEKHKVYACEVTHQGLSSPVTKSFNRGEC
Kd [7]: 5.66 nM

B12: PD-1 1.5 PD028 2001 (antibody)
heavy: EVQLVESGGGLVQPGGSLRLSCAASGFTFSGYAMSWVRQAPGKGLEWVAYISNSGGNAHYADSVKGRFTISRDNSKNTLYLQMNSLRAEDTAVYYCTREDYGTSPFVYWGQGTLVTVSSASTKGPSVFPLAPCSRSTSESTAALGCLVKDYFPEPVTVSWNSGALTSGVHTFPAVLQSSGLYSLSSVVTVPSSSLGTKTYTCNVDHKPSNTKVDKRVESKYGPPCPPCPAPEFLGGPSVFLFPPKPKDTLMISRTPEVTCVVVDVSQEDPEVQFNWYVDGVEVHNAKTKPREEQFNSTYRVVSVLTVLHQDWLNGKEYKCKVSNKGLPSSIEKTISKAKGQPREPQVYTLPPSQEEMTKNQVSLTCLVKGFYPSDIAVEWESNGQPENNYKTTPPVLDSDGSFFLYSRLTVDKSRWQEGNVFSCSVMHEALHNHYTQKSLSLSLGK
light: QGQSGQGFQPCLMFASSCFTSKGGGSSGGSISSGLLSGRSDNHGGGSDIQLTQSPSSLSASVGDRVTITCRASESVDAYGISFMNWFQQKPGKAPKLLIYAASNQGSGVPSRFSGSGSGTDFTLTISSMQPEDFATYYCQQSKDVPWTFGQGTKLEIKRTVAAPSVFIFPPSDEQLKSGTASVVCLLNNFYPREAKVQWKVDNALQSGNSQESVTEQDSKDSTYSLSSTLTLSKADYEKHKVYACEVTHQGLSSPVTKSFNRGEC
Kd [6]: 4.97 nM

Results, then the binder that gave them:

Kd [5]: 1.74 nM
B3: PD-1 1.5 PD012 2001 (antibody)
heavy: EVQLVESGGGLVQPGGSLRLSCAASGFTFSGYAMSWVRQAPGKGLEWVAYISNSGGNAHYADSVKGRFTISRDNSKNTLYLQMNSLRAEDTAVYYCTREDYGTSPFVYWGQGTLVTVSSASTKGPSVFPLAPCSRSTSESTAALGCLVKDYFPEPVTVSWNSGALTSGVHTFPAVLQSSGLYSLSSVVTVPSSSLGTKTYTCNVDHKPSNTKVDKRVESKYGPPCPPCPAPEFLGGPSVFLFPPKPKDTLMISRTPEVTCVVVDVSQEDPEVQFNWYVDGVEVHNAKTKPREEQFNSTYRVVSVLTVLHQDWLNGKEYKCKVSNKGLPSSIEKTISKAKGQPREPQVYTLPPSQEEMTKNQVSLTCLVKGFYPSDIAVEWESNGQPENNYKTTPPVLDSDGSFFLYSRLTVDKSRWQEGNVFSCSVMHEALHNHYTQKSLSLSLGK
light: QGQSGQGNWLDCQFYSECSVYGGGGSSGGSISSGLLSGRSDNHGGGSDIQLTQSPSSLSASVGDRVTITCRASESVDAYGISFMNWFQQKPGKAPKLLIYAASNQGSGVPSRFSGSGSGTDFTLTISSMQPEDFATYYCQQSKDVPWTFGQGTKLEIKRTVAAPSVFIFPPSDEQLKSGTASVVCLLNNFYPREAKVQWKVDNALQSGNSQESVTEQDSKDSTYSLSSTLTLSKADYEKHKVYACEVTHQGLSSPVTKSFNRGEC

Kd [4]: 8.4 nM
Kd [5]: 7.3 nM
Kd [6]: 8.12 nM
Kd [7]: 9.37 nM
B4: A1.5 PD34 2001 (antibody)
heavy: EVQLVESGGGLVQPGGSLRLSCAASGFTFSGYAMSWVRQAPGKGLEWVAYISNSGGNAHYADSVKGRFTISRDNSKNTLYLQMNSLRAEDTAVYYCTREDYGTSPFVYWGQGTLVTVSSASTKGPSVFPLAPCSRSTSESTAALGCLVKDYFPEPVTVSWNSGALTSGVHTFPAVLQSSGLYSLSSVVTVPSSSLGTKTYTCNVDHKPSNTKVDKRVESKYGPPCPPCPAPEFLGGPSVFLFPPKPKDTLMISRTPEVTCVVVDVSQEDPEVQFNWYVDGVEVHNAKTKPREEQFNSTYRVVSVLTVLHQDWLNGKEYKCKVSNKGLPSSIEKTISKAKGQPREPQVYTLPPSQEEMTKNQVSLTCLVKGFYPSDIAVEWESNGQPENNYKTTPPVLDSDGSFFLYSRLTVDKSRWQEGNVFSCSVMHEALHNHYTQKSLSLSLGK
light: QGQSGQGTSYCSIEHYPCNTHHGGGSSGGSISSGLLSGRSDNHGGGSDIQLTQSPSSLSASVGDRVTITCRASESVDAYGISFMNWFQQKPGKAPKLLIYAASNQGSGVPSRFSGSGSGTDFTLTISSMQPEDFATYYCQQSKDVPWTFGQGTKLEIKRTVAAPSVFIFPPSDEQLKSGTASVVCLLNNFYPREAKVQWKVDNALQSGNSQESVTEQDSKDSTYSLSSTLTLSKADYEKHKVYACEVTHQGLSSPVTKSFNRGEC

Kd [6]: 3.75 nM
B5: PD-1 1.5 PD026 2001 (antibody)
heavy: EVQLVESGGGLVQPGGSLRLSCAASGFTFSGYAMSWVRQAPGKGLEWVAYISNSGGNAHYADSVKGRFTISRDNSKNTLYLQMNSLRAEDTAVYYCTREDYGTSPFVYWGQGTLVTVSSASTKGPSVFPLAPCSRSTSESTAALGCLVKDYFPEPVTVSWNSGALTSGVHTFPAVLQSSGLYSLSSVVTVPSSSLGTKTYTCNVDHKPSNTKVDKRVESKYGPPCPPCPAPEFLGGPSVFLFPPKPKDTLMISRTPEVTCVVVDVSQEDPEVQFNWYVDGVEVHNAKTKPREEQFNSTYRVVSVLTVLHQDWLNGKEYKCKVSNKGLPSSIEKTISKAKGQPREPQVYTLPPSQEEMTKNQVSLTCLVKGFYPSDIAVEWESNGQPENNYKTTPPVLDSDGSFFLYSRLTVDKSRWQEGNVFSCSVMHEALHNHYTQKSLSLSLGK
light: QGQSGQGGMCSAYAYSSKLCTIGGGSSGGSISSGLLSGRSDNHGGGSDIQLTQSPSSLSASVGDRVTITCRASESVDAYGISFMNWFQQKPGKAPKLLIYAASNQGSGVPSRFSGSGSGTDFTLTISSMQPEDFATYYCQQSKDVPWTFGQGTKLEIKRTVAAPSVFIFPPSDEQLKSGTASVVCLLNNFYPREAKVQWKVDNALQSGNSQESVTEQDSKDSTYSLSSTLTLSKADYEKHKVYACEVTHQGLSSPVTKSFNRGEC

Kd [4]: 5.22 nM
B6: PD-1 1.5 PD025 2001 (antibody)
heavy: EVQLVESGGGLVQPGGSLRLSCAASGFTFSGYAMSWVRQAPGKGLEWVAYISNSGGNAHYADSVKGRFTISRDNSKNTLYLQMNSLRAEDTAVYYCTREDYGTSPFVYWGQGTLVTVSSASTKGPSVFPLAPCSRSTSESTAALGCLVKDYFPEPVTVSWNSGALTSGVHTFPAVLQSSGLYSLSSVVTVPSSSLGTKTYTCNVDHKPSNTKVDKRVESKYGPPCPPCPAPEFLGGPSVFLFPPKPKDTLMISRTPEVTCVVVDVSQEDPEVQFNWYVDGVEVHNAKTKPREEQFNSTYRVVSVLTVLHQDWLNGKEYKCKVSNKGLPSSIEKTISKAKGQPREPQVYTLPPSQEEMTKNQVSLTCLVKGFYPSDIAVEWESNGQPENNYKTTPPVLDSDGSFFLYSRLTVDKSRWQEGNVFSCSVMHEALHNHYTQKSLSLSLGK
light: QGQSGQGSRCSVYEVSSGLCDWGGGSSGGSISSGLLSGRSDNHGGGSDIQLTQSPSSLSASVGDRVTITCRASESVDAYGISFMNWFQQKPGKAPKLLIYAASNQGSGVPSRFSGSGSGTDFTLTISSMQPEDFATYYCQQSKDVPWTFGQGTKLEIKRTVAAPSVFIFPPSDEQLKSGTASVVCLLNNFYPREAKVQWKVDNALQSGNSQESVTEQDSKDSTYSLSSTLTLSKADYEKHKVYACEVTHQGLSSPVTKSFNRGEC

IC50 [1]: 1.83 nM
Kd [2]: 5.04 nM
IC50 [3]: 1.67 nM
B13: Bb2 (antibody, V domains shown)
VH: QVQLVQSGAEVKKPGASVKMSCKASGYTFTDYYMDWVRQAPGQGLEWIGYIYPKNGGSSYAQKFQGRATLTVDKSTSTAYMELSSLRSEDTAVYYCARKVVATDYWGQGTLLTVSS
VL: DIQMTQSPSSLSASVGDRVTMTCKSSQSLLYSSNQKNYLAWYQQKPGKAPKLLIFWASIRESGVPSRFSGSGSGTDFTLTISSVQPEDFATYYCQQSDSYPWTFGQGTKLEIKR

IC50 [1]: 1.2 nM
IC50 [3]: 2.2 nM
B14: Ba2 (antibody, V domains shown)
VH: QVQLVQSGAEVKKPGASVKMSCKASGYTFTDYYMDWVRQAPGQGLEWIGYIYPKNGGSSYAQKFQGRATLTVDTSTSTAYMELSSLRSEDTAVYYCARKVVATDYWGQGTLLTVSS
VL: DIQMTQSPSSLSASVGDRVTMTCKSSQSLLYSSNQKNYLAWYQQKPGKAPKLLIFWASIRESGVPSRFSGSGSGTDFTLTISSVQPEDFATYYCQQSDSYPWTFGQGTKLEIKR
